The chains are these.
B1: Talquetamab (bispecific antibody, human IgG4 S228P, kappa, lambda, F234A L235A)
heavy 1: not shown
light 1: DIQMTQSPSSLSASVGDRVTITCKASQNVATHVGWYQQKPGKAPKRLIYSASYRYSGVPSRFSGSGSGTEFTLTISNLQPEDFATYYCQQYNRYPYTFGQGTKLEIKRTVAAPSVFIFPPSDEQLKSGTASVVCLLNNFYPREAKVQWKVDNALQSGNSQESVTEQDSKDSTYSLSSTLTLSKADYEKHKVYACEVTHQGLSSPVTKSFNRGEC
heavy 2: EVQLVESGGGLVQPGGSLRLSCAASGFTFNTYAMNWVRQAPGKGLEWVARIRSKYNNYATYYAASVKGRFTISRDDSKNSLYLQMNSLKTEDTAVYYCARHGNFGNSYVSWFAYWGQGTLVTVSSASTKGPSVFPLAPCSRSTSESTAALGCLVKDYFPEPVTVSWNSGALTSGVHTFPAVLQSSGLYSLSSVVTVPSSSLGTKTYTCNVDHKPSNTKVDKRVESKYGPPCPPCPAPEAAGGPSVFLFPPKPKDTLMISRTPEVTCVVVDVSQEDPEVQFNWYVDGVEVHNAKTKPREEQFNSTYRVVSVLTVLHQDWLNGKEYKCKVSNKGLPSSIEKTISKAKGQPREPQVYTLPPSQEEMTKNQVSLTCLVKGFYPSDIAVEWESNGQPENNYKTTPPVLDSDGSFLLYSKLTVDKSRWQEGNVFSCSVMHEALHNHYTQKSLSLSLGK
light 2: QTVVTQEPSLTVSPGGTVTLTCRSSTGAVTTSNYANWVQQKPGQAPRGLIGGTNKRAPGTPARFSGSLLGGKAALTLSGVQPEDEAEYYCALWYSNLWVFGGGTKLTVLGQPKAAPSVTLFPPSSEELQANKATLVCLISDFYPGAVTVAWKADSSPVKAGVETTTPSKQSNNKYAASSYLSLTPEQWKSHRSYSCQVTHEGSTVEKTVAPTECS
notes: Four polypeptide chains (anti-GPRC5D-HC/LC, anti-CD3-HC/LC); made in house by in vitro assembly of the two parental monoclonal antibodies with 2-MEA; also called benchmark; BM
B2: GC35 (bispecific antibody, human IgG1, kappa, L234A L235A)
heavy: EVQLVQSGAEVVKPGASVKMSCKASGYTFTNYVMHWVKQAPGQGLEWMGYFNPYNDGTNYNEKFKGRVTLTSDTSANTAYMELSSLRSEDTAVYYCARGGVRRYFDVWGQGTTVTVSSASTKGPSVFPLAPSSKSTSGGTAALGCLVKDYFPEPVTVSWNSGALTSGVHTFPAVLQSSGLYSLSSVVTVPSSSLGTQTYICNVNHKPSNTKVDKKVEPKSCDKTHTCPPCPAPEAAGGPSVFLFPPKPKDTLMISRTPEVTCVVVDVSHEDPEVKFNWYVDGVEVHNAKTKPREEQYNSTYRVVSVLTVLHQDWLNGKEYKCKVSNKALAAPIEKTISKAKGQPREPQVCTLPPSREEMTKNQVSLSCAVKGFYPSDIAVEWESNGQPENNYKTTPPVLDSDGSFFLVSKLTVDKSRWQQGNVFSCSVMHEALHNHYTQKSLSLSPGK
light: DIQMTQSPSSLSASVGDRVTITCRASQDIGSNLNWLQLGPGGAIKRLIYATFSLDSGVPSRFSGSRSGSDYTLTISSLQPEDFVDYYCQQYANFPPTFGGGTKVEIKRTVAAPSVFIFPPSDEQLKSGTASVVCLLNNFYPREAKVQWKVDNALQSGNSQESVTEQDSKDSTYSLSSTLTLSKADYEKHKVYACEVTHQGLSSPVTKSFNRGEC
scFv: ELVVTQEPSLTTSPGGTVTLTCRSSTGAVTTSNYANWVQQKPGQAPRGLIGGTNKRAPGTPARFSGSLLGGKAALTITGVQPEDEAEYYCALWYSNLWVFGGGTKLTVLGGGGSGGGGSGGGGSEVQLVESGGGLVQPGGSLRLSCAASGFTFNTYAMNWVRQAPGKGLEWVARIRSKYNNYATYYADSVKDRFTISRDDSKNTAYLQMNNLKTEDTAMYYCVRHGNFGNSYVSWFAYWGQGTLVTVSSGEPKSSDKTHTCPPCPAPEAAGGPSVFLFPPKPKDTLMISRTPEVTCVVVDVSHEDPEVKFNWYVDGVEVHNAKTKPREEQYNSTYRVVSVLTVLHQDWLNGKEYKCKVSNKALAAPIEKTISKAKGQPREPQVYTLPPCREEMTKNQVSLWCLVKGFYPSDIAVEWESNGQPENNYKTTPPVLDSDGSFFLYSKLTVDKSRWQQGNVFSCSVMHEALHNRYTQKSLSLSPGK
notes: also called anti-GPRC5D/anti-CD3 bispecific antibody GC35
B3: GC39 (bispecific antibody, human IgG1, kappa, L234A L235A)
heavy: EVQLVESGGGLVQPGGSRRVSCAASGFTFSSFGMHWVRQAPGKGLEWVAYISRGSSTIYYADTVKGRFTISRDNAKNSLYLQMNSLRAEDTAVYYCARSGYGSSSYYFDYWGQGTTVTVSSASTKGPSVFPLAPSSKSTSGGTAALGCLVKDYFPEPVTVSWNSGALTSGVHTFPAVLQSSGLYSLSSVVTVPSSSLGTQTYICNVNHKPSNTKVDKKVEPKSCDKTHTCPPCPAPEAAGGPSVFLFPPKPKDTLMISRTPEVTCVVVDVSHEDPEVKFNWYVDGVEVHNAKTKPREEQYNSTYRVVSVLTVLHQDWLNGKEYKCKVSNKALAAPIEKTISKAKGQPREPQVCTLPPSREEMTKNQVSLSCAVKGFYPSDIAVEWESNGQPENNYKTTPPVLDSDGSFFLVSKLTVDKSRWQQGNVFSCSVMHEALHNHYTQKSLSLSPGK
light: EIVLTQSPATLSASPGERATMSCRASSSIRSSYLHWYQQKPGQSPRLWIYSTSNLASGVPARFSGSGSGTDYTLTISSLEPEDAAVYYCQQFSGYPLTFGGGTKVEIKRTVAAPSVFIFPPSDEQLKSGTASVVCLLNNFYPREAKVQWKVDNALQSGNSQESVTEQDSKDSTYSLSSTLTLSKADYEKHKVYACEVTHQGLSSPVTKSFNRGEC
scFv: B2 scFv
notes: also called anti-GPRC5D/anti-CD3 bispecific antibody GC39

The experiment deals with T1, T cell surface CD3 (human, UniProt P07766 23-207).
T1 construct: whole, on cells
T1 sequence (P07766 23-207): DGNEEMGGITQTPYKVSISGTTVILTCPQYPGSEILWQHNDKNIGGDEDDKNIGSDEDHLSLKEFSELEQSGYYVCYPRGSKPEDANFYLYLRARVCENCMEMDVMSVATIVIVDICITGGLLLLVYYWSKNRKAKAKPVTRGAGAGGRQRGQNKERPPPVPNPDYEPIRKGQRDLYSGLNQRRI
Kind of experiment: flow cytometry on human CD3+ T cells. As for the experimental part: Human PBMCs (peripheral blood mononuclear cells) were sorted for CD3⁺ T cells using CD3 magnetic beads (Miltenyi, Cat. No. 130-097-043). The cryopreserved PBMCs were thawed, and washed by centrifugation twice for counting. The running buffer (MACS, Cat. No. 130-091-221) was added at a ratio of 80 μL per 10⁷ cells, and the CD3 magnetic beads were added at a ratio of 20 μL CD3 magnetic beads per 10⁷ cells. The mixture was mixed well and incubated at 4° C. for 15 min. The running buffer was added at a ratio of 1-2 mL per 10⁷ cells for washing the cells. The mixture was centrifuged, the supernatant was discarded, and 500 μL of running buffer was added to resuspend the cell pellet. The LS sorting column (Miltenyi, Cat. No. 130-042-401) was placed on the MidiMACS Starting Kit (LS) magnetic rack (Miltenyi, Cat. No. 130-091-051). After rinsing, the cell suspension was added and washed thrice. The LS sorting column was removed from the magnetic rack and placed on a clean centrifuge tube and 5 mL buffer was added to collect the sorted CD3⁺ T cells.
After counting, the CD3⁺ T cells were adjusted to a cell density of 1×10⁶-2×10⁶ cells/mL using running buffer, and seeded in a 96-well U-bottom cell culture plate (Costar, Cat. No. 3799) at 50 μL per well. Different concentrations of the anti-GPRC5D/anti-CD3 bispecific antibodies were prepared using running buffer. The highest concentration of the antibodies was 200 nM, and the antibodies were serially diluted 5-fold to obtain a total of 10 concentration gradients. The antibodies at different concentrations were added to the 96-well cell culture plate described above at 50 μL per well, mixed well and incubated at 4° C. for 1 h. The cells were washed with pre-cooled running buffer (MACS, Cat. No. 130-091-221), and then the supernatant was discarded. Pre-cooled PE-conjugated goat anti-human IgG Fcγ antibody (Jackson Immuno Research, Cat. No. 109-116-170) was added, and the cells were resuspended at 100 μL/well. The mixture was mixed well and incubated at 4° C. for 30 min. […]
For the molecule B1, the “Top(MFI)” value stood at 155000.
Consider B2, for which the “Top(MFI)” value worked out at 54700.
With B3, the “Top(MFI)” value was 38000.

Source of the values: patent US20260226168A1 (CHIA TAI TIANQING PHARMACEUTICAL GROUP, published 2026).
